Experimental data: patent US20250326823A1
Where two headings read alike, the source gives them in different places.

Legend:
Assay in all cases: cell-based or functional assay
[1] = target: SARS-CoV-2 spike (S) protein, variant KP.2.3 (SARS-CoV-2)
[2] = target: SARS-CoV-2 spike (S) protein, variant KP.3.1.1 (SARS-CoV-2)
[3] = target: SARS-CoV-2 spike (S) protein, variant JN.1 (SARS-CoV-2)
[4] = target: SARS-CoV-2 spike (S) protein, variant XEC (SARS-CoV-2)
[5] = target: SARS-CoV-2 spike (S) protein, variant EG.5.1 (SARS-CoV-2)
[6] = target: SARS-CoV-2 spike (S) protein, variant KP.3 (SARS-CoV-2)
[7] = target: SARS-CoV-2 spike (S) protein, variant LB.1 (SARS-CoV-2)
[8] = target: SARS-CoV-2 spike (S) protein, variant CH.1.1 (SARS-CoV-2)
[9] = target: SARS-CoV-2 spike (S) protein, variant KP.2 (SARS-CoV-2)
[10] = target: SARS-CoV-2 spike (S) protein, D614G (SARS-CoV-2) (UniProt P0DTC2)
[11] = target: SARS-CoV-2 spike (S) protein, variant BA.2.86 (SARS-CoV-2)
[12] = target: SARS-CoV-2 spike (S) protein, variant BA.2.86 (SARS-CoV-2) (UniProt P0DTC2)
[13] = target: SARS-CoV-2 spike (S) protein, variant KP.2 (SARS-CoV-2) (UniProt P0DTC2)
[14] = target: SARS-CoV-2 spike (S) protein, variant CH.1.1 (SARS-CoV-2) (UniProt P0DTC2)
[15] = target: SARS-CoV-2 spike (S) protein, variant B.1.526 (SARS-CoV-2)
[16] = target: SARS-CoV-2 spike (S) protein, variant JD.1.1 (SARS-CoV-2)
[17] = target: SARS-CoV-2 spike (S) protein, variant B.1.617.2 (SARS-CoV-2)
[18] = target: SARS-CoV-2 spike (S) protein, variant XBB.1.16.6 (SARS-CoV-2)
[19] = target: SARS-CoV-2 spike (S) protein, variant BA.4/5 (SARS-CoV-2)
[20] = target: SARS-CoV-2 spike (S) protein, variant JN.1 (SARS-CoV-2); remark: listed apart in the source
[21] = target: SARS-CoV-2 spike (S) protein, variant B.1.621 (SARS-CoV-2)
[22] = target: SARS-CoV-2 spike (S) protein, variant EG.5.1 (SARS-CoV-2); remark: listed apart in the source
[23] = target: SARS-CoV-2 spike (S) protein, variant B.1.427 (SARS-CoV-2)
[24] = target: SARS-CoV-2 spike (S) protein, variant CH.1.1 (SARS-CoV-2); remark: listed apart in the source
[25] = target: SARS-CoV-2 spike (S) protein, variant BA.1 (SARS-CoV-2)
[26] = target: SARS-CoV-2 spike (S) protein, variant P.2 (SARS-CoV-2)
[27] = target: SARS-CoV-2 spike (S) protein, variant EG.5.1 (SARS-CoV-2) (UniProt P0DTC2)
[28] = target: SARS-CoV-2 spike (S) protein, D614G (SARS-CoV-2) (UniProt P0DTC2); remark: listed apart in the source
[29] = target: SARS-CoV-2 spike (S) protein, variant LB.1 (SARS-CoV-2) (UniProt P0DTC2)
[30] = target: SARS-CoV-2 spike (S) protein, variant B.1.525 (SARS-CoV-2)
[31] = target: SARS-CoV-2 spike (S) protein, variant B.1.429 (SARS-CoV-2)
[32] = target: SARS-CoV-2 spike (S) protein, variant KP.3.1.1 (SARS-CoV-2) (UniProt P0DTC2)
[33] = target: SARS-CoV-2 spike (S) protein, variant XBB (SARS-CoV-2)
[34] = target: SARS-CoV-2 spike (S) protein, variant KP.2.3 (SARS-CoV-2) (UniProt P0DTC2)
[35] = target: SARS-CoV-2 spike (S) protein, variant BA.2.86 (SARS-CoV-2); remark: listed apart in the source
[36] = target: SARS-CoV-2 spike protein, variant KP.3 (SARS-CoV-2)
[37] = target: SARS-CoV-2 spike (S) protein, variant XEC (SARS-CoV-2) (UniProt P0DTC2)

Substance: ADG20 (antibody)
- neutralization IC50 [1]: > 10 µg/mL
- neutralization IC50 [2]: > 10 µg/mL
- neutralization IC50 [3]: > 10 µg/mL
- neutralization IC50 [4]: > 10 µg/mL
- neutralization IC50 [5]: > 10 µg/mL
- neutralization IC50 [6]: > 10 µg/mL
- neutralization IC50 [7]: > 10 µg/mL
- neutralization IC50 [8]: 2.06 µg/mL
- neutralization IC50 [9]: > 10 µg/mL
- neutralization IC50 [10]: 0.003 µg/mL
- neutralization IC50 [11]: > 10 µg/mL
- neutralizing activity IC50 (µg/ml (caption; values match nM)) [12]: > 67
- neutralizing activity IC80 (µg/ml (caption; values match nM)) [12]: > 67
- neutralizing activity IC50 (µg/ml (caption; values match nM)) [13]: > 67
- neutralizing activity IC80 (µg/ml (caption; values match nM)) [13]: > 67
- neutralizing activity IC50 (µg/ml (caption; values match nM)) [14]: 13.7
- neutralizing activity IC80 (µg/ml (caption; values match nM)) [14]: > 67
- neutralizing activity IC50 [15]: 0.019 nM
- neutralizing activity IC80 [15]: 0.081 nM
- pseudovirus neutralization IC50 [16]: > 67 nM
- pseudovirus neutralization IC80 [16]: > 67 nM
- neutralizing activity IC50 [17]: 0.11 nM
- neutralizing activity IC80 [17]: 0.118 nM
- neutralizing activity IC50 [18]: > 67 nM
- neutralizing activity IC80 [18]: > 67 nM
- neutralizing activity IC50 [19]: > 67 nM
- neutralizing activity IC80 [19]: > 67 nM
- pseudovirus neutralization IC50 [20]: > 67 nM
- pseudovirus neutralization IC80 [20]: > 67 nM
- neutralizing activity IC50 [21]: 0.026 nM
- neutralizing activity IC80 [21]: 0.131 nM
- pseudovirus neutralization IC50 [22]: > 67 nM
- pseudovirus neutralization IC80 [22]: > 67 nM
- neutralization IC50 [23]: 0.072 nM
- neutralization IC80 [23]: 0.162 nM
- neutralizing activity IC50 [24]: 13.7 nM
- neutralizing activity IC80 [24]: > 67 nM
- neutralizing activity IC50 [25]: 13.9 nM
- neutralizing activity IC80 [25]: > 67 nM
- neutralization IC50 [26]: 0.034 nM
- neutralization IC80 [26]: 0.121 nM
- neutralizing activity IC50 (µg/ml (caption; values match nM)) [27]: > 67
- neutralizing activity IC80 (µg/ml (caption; values match nM)) [27]: > 67
- neutralization IC50 [28]: 0.019 nM
- neutralization IC80 [28]: 0.065 nM
- neutralizing activity IC50 (µg/ml (caption; values match nM)) [29]: > 67
- neutralizing activity IC80 (µg/ml (caption; values match nM)) [29]: > 67
- neutralizing activity IC50 [30]: 0.019 nM
- neutralizing activity IC80 [30]: 0.101 nM
- neutralization IC50 [31]: 0.014 nM
- neutralization IC80 [31]: 0.061 nM
- neutralizing activity IC50 (µg/ml (caption; values match nM)) [32]: > 67
- neutralizing activity IC80 (µg/ml (caption; values match nM)) [32]: > 67
- neutralizing activity IC50 [33]: 10.6 nM
- neutralizing activity IC80 [33]: > 67 nM
- neutralizing activity IC50 (µg/ml (caption; values match nM)) [34]: > 67
- neutralizing activity IC80 (µg/ml (caption; values match nM)) [34]: > 67
- pseudovirus neutralization IC50 [35]: > 67 nM
- pseudovirus neutralization IC80 [35]: > 67 nM
- IC50 (nM), pseudovirus neutralization [36]: > 67 nM
- neutralizing activity IC50 (µg/ml (caption; values match nM)) [37]: > 67
- neutralizing activity IC80 (µg/ml (caption; values match nM)) [37]: > 67

Substance: AZD3152 (antibody)
- neutralization IC50 [1]: > 10 µg/mL
- neutralization IC50 [2]: > 10 µg/mL
- neutralization IC50 [3]: 0.766 µg/mL
- neutralization IC50 [4]: > 10 µg/mL
- neutralization IC50 [5]: > 10 µg/mL
- neutralization IC50 [6]: > 10 µg/mL
- neutralization IC50 [7]: > 10 µg/mL
- neutralization IC50 [8]: 0.045 µg/mL
- neutralization IC50 [9]: > 10 µg/mL
- neutralization IC50 [10]: 0.015 µg/mL
- neutralization IC50 [11]: 0.053 µg/mL
- neutralizing activity IC80 (µg/ml (caption; values match nM)) [12]: 2.23
- neutralizing activity IC50 (µg/ml (caption; values match nM)) [13]: > 67
- neutralizing activity IC80 (µg/ml (caption; values match nM)) [13]: > 67
- neutralizing activity IC80 (µg/ml (caption; values match nM)) [14]: 1.59
- pseudotyped neutralization potency IC50 [14]: 0.501 nM
- pseudotyped neutralization potency IC80 [14]: 1.47 nM
- IC50, pseudovirus neutralization [15]: 0.329 nM
- IC80, pseudovirus neutralization [15]: 1.04 nM
- IC50, pseudovirus neutralization [16]: > 67 nM
- IC80, pseudovirus neutralization [16]: > 67 nM
- IC50, pseudovirus neutralization [17]: 0.602 nM
- IC80, pseudovirus neutralization [17]: 2.2 nM
- IC50, pseudovirus neutralization [18]: > 67 nM
- IC80, pseudovirus neutralization [18]: > 67 nM
- IC50, pseudovirus neutralization [19]: 0.198 nM
- IC80, pseudovirus neutralization [19]: 0.656 nM
- IC50, pseudovirus neutralization [20]: 5.11 nM
- IC80, pseudovirus neutralization [20]: 28 nM
- IC50, pseudovirus neutralization [21]: 0.265 nM
- IC80, pseudovirus neutralization [21]: 0.625 nM
- IC50, pseudovirus neutralization [22]: > 67 nM
- IC80, pseudovirus neutralization [22]: > 67 nM
- IC50, pseudovirus neutralization [23]: 0.598 nM
- IC80, pseudovirus neutralization [23]: 2.03 nM
- IC50, pseudovirus neutralization [24]: 0.301 nM
- IC80, pseudovirus neutralization [24]: 1.59 nM
- IC50, pseudovirus neutralization [25]: 0.0779 nM
- IC80, pseudovirus neutralization [25]: 0.446 nM
- IC50, pseudovirus neutralization [26]: 0.135 nM
- IC80, pseudovirus neutralization [26]: 0.359 nM
- neutralizing activity IC50 (µg/ml (caption; values match nM)) [27]: > 67
- neutralizing activity IC80 (µg/ml (caption; values match nM)) [27]: > 67
- IC50, pseudotyped neutralization potency [28]: 0.016 nM
- IC50, pseudovirus neutralization [28]: 0.102 nM
- IC80, pseudotyped neutralization potency [28]: 0.032 nM
- IC80, pseudovirus neutralization [28]: 0.623 nM
- neutralizing activity IC50 (µg/ml (caption; values match nM)) [29]: > 67
- neutralizing activity IC80 (µg/ml (caption; values match nM)) [29]: > 67
- IC50, pseudovirus neutralization [30]: 0.668 nM
- IC80, pseudovirus neutralization [30]: 1.53 nM
- IC50, pseudovirus neutralization [31]: 0.549 nM
- IC80, pseudovirus neutralization [31]: 1.39 nM
- neutralizing activity IC50 (µg/ml (caption; values match nM)) [32]: > 67
- neutralizing activity IC80 (µg/ml (caption; values match nM)) [32]: > 67
- IC50, pseudovirus neutralization [33]: 0.0748 nM
- IC80, pseudovirus neutralization [33]: 0.349 nM
- neutralizing activity IC50 (µg/ml (caption; values match nM)) [34]: > 67
- neutralizing activity IC80 (µg/ml (caption; values match nM)) [34]: > 67
- IC50, pseudovirus neutralization [35]: 0.351 nM
- IC80, pseudovirus neutralization [35]: 2.23 nM
- IC50 (nM), pseudovirus neutralization [36]: > 67 nM
- neutralizing activity IC50 (µg/ml (caption; values match nM)) [37]: > 67
- neutralizing activity IC80 (µg/ml (caption; values match nM)) [37]: > 67
